The supplement of paper PMC9170038

Test system: MS2 coat protein
Experiment: apparent KD of MS2 coat protein; designed switch direction (-1 OFF switch, 1 ON switch): -1; higher = weaker reporter binding
How it was run: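 Apparent KD, taken as the median over clusters for each design, was obtained by curve-fitting normalised cluster fluorescence. Designed RNA switches had been transcribed on Illumina chips by stalled E. coli RNA polymerase and titrated with SNAP-549-labelled MS2 coat protein, doubling from 0.7 or 1.5 nM to 3 µM.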

[1] = input ligand: microRNA oligo, concentration not stated
[2] = Eterna round: R95, input ligand: FMN 200 uM
[3] = Eterna round: R95, input ligand: microRNA oligo, concentration not stated
[4] = Eterna round: R95, input ligand: none

Row | Sequence | apparent KD of MS2 coat protein (input ligand: FMN 200 uM) [µM] | apparent KD of MS2 coat protein [1] [µM] | apparent KD of MS2 coat protein (input ligand: none) [µM] | apparent KD of MS2 coat protein [2] [µM] | apparent KD of MS2 coat protein [3] [µM] | apparent KD of MS2 coat protein [4] [µM]
1 | GUGUGUUGAUUAGGAUAUGCUCUAAGCAAUCGGGCAGAAGGAGUUAGACAUGAGGAUCACCCAUGUAAAUAUCGGAUCCCAACG [Eternabot solution 17] (Eterna round: R96, puzzle: Exclusion NG 1) | 0.0186 | 0.0162 | 0.0193 | – | – | –
2 | UACAUGAGGAUCACCCAUGUUUUGUCGUGUAUGGUAUUUAUCUAGGAUAUCGAUUUAUUUAACCACGAGAAGGAGAGUAUCAAU [MOD Solution 21 by JMF] (Eterna round: R96, puzzle: Exclusion NG 3) | 0.0464 | 0.0368 | 0.0441 | – | – | –
3 | GGAAGGCGAGGAUAUACAAUAAAGAAAGCGAAAGACAUGAAACAUGAGGAUCACCCAUGUAGAAGGCGCGGAGA [AK-MS2ROC-r4-exclusion2-9] (Eterna round: R97, puzzle: Exclusion 2) | 0.0165 | – | 0.0138 | – | – | –
4 | ACUCAAUAGUAGGAUAUCAUCAAACUAUUGUGAUGAGAAGGACUAACAUGAGGAUCACCCAUGUUAACGUGAAG [Mod of Brourd 4 - Jieux - Exclusion 6] (Eterna round: R97, puzzle: Exclusion 6) | 0.023 | – | 0.0203 | – | – | –
5 | UUUUACUCAGGAUAUAUGAUGUGAAACAUGAGGAUCACCCAUGUAAUAUUAUGGAUGUAAAUAGAAGGGAGAUUUU [Mat - Exclusion 5 - JL mod - D17] (puzzle: Exclusion 5) | – | – | – | 0.0588 | 0.0623 | 0.0784
6 | GUGUACGGAGGAUAUAUGUGGUGAGCAUACGCUCAAGCUUCACAUGAGGAUCACCCAUGUAGAAGGCUGUGCAC [JL-ex2-2.13 Brourd mod] (puzzle: Exclusion 2) | – | – | – | – | 0.118 | –
7 | GGAAUACAUGAGGAUCACCCAUGUAAGGAUAUGCUGAUUAAAUUGGAUUAAUUAUGCAGCAGAAGGUACAAAAG [Mat - Mod of my Eli Mod D49] (puzzle: Exclusion 1) | – | – | – | – | 0.0823 | –
8 | CUUUUGUCAGGAUAUGAGUAGUAGAACAAUAGUACUACUACUCAGAAGGGACAUGAGGAUCACCCAUGUUCCUC [Fiskers Ex 4 Super stable 44 mod 19] (puzzle: Exclusion 4) | – | – | – | – | 0.0162 | –
9 | UUUGUUUUGGUAGGAUAUACUUUUAUUUUCUCUUUCCUUACAUGAGGAUCACCCAUGUUUACAUUGUAGAAGGACCACUUUGUU [JR_ExcNG2_Sub051] (Eterna round: R96, puzzle: Exclusion NG 2) | – | 0.0155 | – | – | – | –
10 | UAUUAGCAAGCAAGAUCCUACAUGAGGAUCACCCAUGUGCUCGUCUUAAACUCAGAAUUACUGAGAGCUCGUCUUAU [Winner reversed engineered 24] (Eterna round: R97, puzzle: Sensor, turn-off variant 1) | 0.443 | – | 0.515 | – | – | –
11 | AUAUAGCGAGGAUAUACAUGAGGAUCACCCAUGUGGUAGUAGAUACGGUAGGGCUAGUGUAGAAGGUGCUAUGA [EX3 #12] (Eterna round: R97, puzzle: Exclusion 3) | 0.45 | – | 0.231 | – | – | –
12 | GGGCCCGGAGGAUAUACAAUUCUGGGCUGAAAGGCUCGGGUACAUGAGGAUCACCCAUGUAGAAGGCCGGGCCC [-37.6, -34.7 kcal A 24%, 7bis-0] (Eterna round: R97, puzzle: Exclusion 2) | 0.0334 | – | 0.0149 | – | – | –
13 | AGUACUAACACGAAAGUGUUAGUCCAAUAAGCUUGUGAAACAUGAGGAUCACCCAUGUCCUCAUAAGCUCGUCUUAU [salish99_TOv2_r3_038] (puzzle: Sensor v3, turn-off variant 2) | – | – | – | 0.0174 | 0.454 | –
14 | CCGCUCCGUGUAGGAUAUUGGCGUGCCCUGCGCCGAGAAGGACAUGAGGAUCACCCAUGUAUGUUAUUAUCACGCGUGGCGCAC [Design 76] (Eterna round: R96, puzzle: Exclusion NG 1) | 0.0159 | 0.0129 | 0.017 | – | – | –
15 | UUUUUCAGGCCAGAUCCUCACAUGAGGAUCACCCAUGUGCUCGUCUGUUUUCGCUCUUUCUUUUUUUUGUUUGUGCU [Level Boss var2-19] (puzzle: Sensor v3, turn-off variant 1) | – | – | – | 0.181 | 0.0275 | 0.312
16 | AGUACUAACACGAUAGUGUUAGUACUAUAAGCUUGUGUUACAUGAGGAUCACCCAUGUCCUCAUAAGCUCGUCUUAA [Mat - Sensor v3 - Turn-off var 2 - D65] (puzzle: Sensor v3, turn-off variant 2) | – | – | – | 0.0369 | 0.42 | 0.0381
17 | GUGAGAUAGUUAGUGGACGACAUGAGGAUCACCCAUGUGAGGGAAAUGUUGAGGAGAAAGCUUUUUGCUCGUCUUUA [JR_SV3TOV1_Sub036] (puzzle: Sensor v3, turn-off variant 1) | – | – | – | 0.0908 | 0.0874 | 0.119

Row | Sequence | apparent KD of MS2 coat protein (input ligand: FMN 200 uM) [µM] | apparent KD of MS2 coat protein [1] [µM] | apparent KD of MS2 coat protein (input ligand: none) [µM] | apparent KD of MS2 coat protein [2] [µM] | apparent KD of MS2 coat protein [3] [µM] | apparent KD of MS2 coat protein [4] [µM]
18 | GCGGAGUGAGGAUAUAGAACUUAAGGUACCAAUUAGGUACCCUAGAAGGCACAUGAGGAUCACCCAUGUACCGC [Eli x4 4.01] (Eterna round: R97, puzzle: Exclusion 4) | 0.0265 | – | 0.0286 | – | – | –
19 | CUCUUGUCAGGAUAUCUAAGCUGCCUCCCGGUAGCCGAAUUAGAGAAGGGACAUGAGGAUCACCCAUGUAAAAG [Qubile] (puzzle: Exclusion 4) | – | – | – | 0.0583 | 0.16 | 0.28
20 | ACAUGAGGAUCACCCAUGUGACCACGAUGGCUGAUGUAGACCUAGGAUAUGUGUGAAUAUCUAUCACAGAAGGAGGUUGACUGG [Deportation 51 - Jieux - Exclusion NG 3] (Eterna round: R96, puzzle: Exclusion NG 3) | 0.0444 | 0.0343 | 0.0427 | – | – | –
21 | AAAUCUCACGUAAGGAUAUCCUGGGCAACGUCCACGGAGAAGGUACAUGAGGAUCACCCAUGUGCUCGCUAUAC [BmEX4 C.1] (Eterna round: R97, puzzle: Brourd's mod of Exclusion 4) | 0.0252 | – | 0.0197 | – | – | –
22 | UUAAAUCAUGUAGGAUAUGCUUUGCAAAGCGAGGCAGAAGGACAUGAGGAUCACCCAUGUGCUAGCGUCCGAGAACGGAUGCAA [Mat - Exclusion NG 1 - Mod of JL - D64] (Eterna round: R96, puzzle: Exclusion NG 1) | 0.503 | 0.0416 | 0.0466 | – | – | –
23 | UUCGUUUUAGGAUAUACAGGGUUGGUCGACAACUCACUGUCACAUGAGGAUCACCCAUGUAGAAGGGAGAGAAG [Eternabot (L1) Solution 49] (Eterna round: R97, puzzle: Exclusion 2) | 0.244 | – | 0.198 | – | – | –
24 | CGGGUUCGUGUUAGGAUAUGCACGCACCCGUUGCGGCAGAAGGAACAUGAGGAUCACCCAUGUGAAUAAGAAAG [BmEX4 A.21] (Eterna round: R97, puzzle: Brourd's mod of Exclusion 4) | 0.0171 | – | 0.0155 | – | – | –
25 | AGUAACAGAGGAUAUACUGUUUUAUGUGUUUGUUGUUUUAAACAUGAGGAUCACCCAUGUAGAAGGCUGAAUAA [JMF 87] (puzzle: Exclusion 2) | – | – | – | – | 0.0188 | –
26 | UAAUUAGCAAGUAGAUCCGACAUGAGGAUCACCCAUGUUAUCUGAAAGAACGCAGAAUAACUGUGAGCUCGUCUAAA [Sensor-V1 #1] (Eterna round: R97, puzzle: Sensor, turn-off variant 1) | 0.315 | – | 0.333 | – | – | –
27 | UUUAAUUUUUUUUUUUUACAAGCUUUUUGCUCGUCUUAUACAUGAGGAUCACCCAUGUAAGUGAGGGAUAAAUUAUC [JMF 40] (puzzle: Sensor v3, turn-off variant 2) | – | – | – | 0.0156 | 0.0228 | 0.0156
28 | CUGAAGGUGCAGGAUAUCCUGAAUAAGGGUUCAGGAGAAGGGCACACAUGAGGAUCACCCAUGUUAAUACUGCU [Eternabot (L2) Solution 54] (Eterna round: R97, puzzle: Exclusion 6) | 0.0295 | – | 0.0391 | – | – | –
29 | GAAAAGGUAGGAUAUACGAAAACAAAGGGUAGAAACAAAACACAUGAGGAUCACCCAUGUAGAAGGACCAAAAG [salish99_ex2_r3_097] (Eterna round: R96, puzzle: Exclusion 2) | – | 0.0308 | – | – | – | –
30 | GGUCAAGAACAGAACCGCGCUGCCAUUGACCGCUCAUUUACAUGAGGAUCACCCAUGUUUUUUGCUUGUCUUGUUAC [Beusdieson] (puzzle: Sensor v3, turn-off variant 2) | – | – | – | 0.0162 | 0.0899 | 0.0187
31 | GCAGCUAAUGCAGGAUAUCAGCACGUGUAGUGCUGAGAAGGGCACAUGAGGAUCACCCAUGUGAUCAAUUAAUAUUAAUGCUGC [ENG1/11-B3] (Eterna round: R96, puzzle: Exclusion NG 1) | 0.328 | 0.0162 | 0.0205 | – | – | –
32 | UGUUGUCGCGCAGGAUAUGUAUGAGGAUCACCCAUUAAUAAAUUUUAACCACGAGGAUCACCCGUGUAGAAGGGCGGGACAACA [pwkr exNG2 2xF5 1xFMN.15] (Eterna round: R96, puzzle: Exclusion NG 2) | 0.0308 | 0.0183 | 0.0295 | – | – | –
33 | GGUCCACAUGAGGAUCACCCAUGUUAGGAUAUCUCCUGCCUCCUCACUGGAGGCAGACAGAGAAGGAACAUCAA [Eratxe] (puzzle: Exclusion 1) | – | – | – | 0.0783 | 0.022 | 0.0239
